The source of these data is patent publication US6500417 (DSM N V, dated 2002).

Where a chain is given by its changes, count along the chain named.

B1: hIL-3 deletion mutant 936 (deletion 76-83) (ligand)
chain: APMTQTTPLKTSWVNCSNMIDEIITHLKQPPLPLLDFNNLNGEDQDILMENNLRRPNLEAFNRAVKSLQNASAIECLPLATAAPTRHPIHIKDGDWNEFRRKLTFYLKTLENAQAQQTTLSLAIF
notes: not shown: heterologous N-terminal leader of the E. coli fusion (pGB/IL-336: 12 aa; pGB/IL-339: 15 aa)
B2: hIL-3 substitution mutant 1493 (Phe113Tyr114→Ala113Thr114) (ligand)
chain: APMTQTTPLKTSWVNCSNMIDEIITHLKQPPLPLLDFNNLNGEDQDILMENNLRRPNLEAFNRAVKSLQNASAIESILKNLLPCLPLATAAPTRHPIHIKDGDWNEFRRKLTATLKTLENAQAQQTTLSLAIF
notes: also called 113FY → AT; not shown: heterologous N-terminal leader of the E. coli fusion (pGB/IL-336: 12 aa; pGB/IL-339: 15 aa)
B3: hIL-3 substitution mutant 1481 (Glu43Asp44→Lys43Arg44) (ligand)
chain: B2 chain with E43K, D44R, A113F, T114Y
notes: also called 43ED→KR; not shown: heterologous N-terminal leader of the E. coli fusion (pGB/IL-336: 12 aa; pGB/IL-339: 15 aa)
B4: hIL-3 deletion mutant 820 (deletion 85-90) (ligand)
chain: APMTQTTPLKTSWVNCSNMIDEIITHLKQPPLPLLDFNNLNGEDQDILMENNLRRPNLEAFNRAVKSLQNASAIESILKNLLPCAPTRHPIHIKDGDWNEFRRKLTFYLKTLENAQAQQTTLSLAIF
notes: as for B1
B5: hIL-3 deletion mutant 810 (deletion 20-30) (ligand)
chain: APMTQTTPLKTSWVNCSNMPLPLLDFNNLNGEDQDILMENNLRRPNLEAFNRAVKSLQNASAIESILKNLLPCLPLATAAPTRHPIHIKDGDWNEFRRKLTFYLKTLENAQAQQTTLSLAIF
notes: also called 4810; not shown: heterologous N-terminal leader of the E. coli fusion (pGB/IL-336: 12 aa; pGB/IL-339: 15 aa)
B6: hIL-3 deletion mutant 811 (deletion 31-49) (ligand)
chain: APMTQTTPLKTSWVNCSNMIDEIITHLKQPENNLRRPNLEAFNRAVKSLQNASAIESILKNLLPCLPLATAAPTRHPIHIKDGDWNEFRRKLTFYLKTLENAQAQQTTLSLAIF
notes: expressed in Bacillus, lacks a leader
B7: pGB/IL-336 IL-3 fusion protein (ligand)
chain: MTMITNSRGSVDAPMTQTTPLKTSWVNCSNMIDEIITHLKQPPLPLLDFNNLNGEDQDILMENNLRRPNLEAFNRAVKSLQNASAIESILKNLLPCLPLATAAPTRHPIHIKDGDWNEFRRKLTFYLKTLENAQAQQTTLSLAIF
B8: hIL-3 combination deletion mutant X (deletions 1-14/120-133) (ligand)
chain: NCSNMIDEIITHLKQPPLPLLDFNNLNGEDQDILMENNLRRPNLEAFNRAVKSLQNASAIESILKNLLPCLPLATAAPTRHPIHIKDGDWNEFRRKLTFYLKTLE
notes: as for B6
B9: hIL-3 substitution mutant 904 (Cys16→Ala16) (ligand)
chain: B2 chain with C16A, A113F, T114Y
notes: also called 16C → A; not shown: heterologous N-terminal leader of the E. coli fusion (pGB/IL-336: 12 aa; pGB/IL-339: 15 aa)
B10: hIL-3 substitution mutant 1484 (Arg54Arg55→Glu54Asp55) (ligand)
chain: B2 chain with R54E, R55D, A113F, T114Y
notes: also called 54RR → ED; not shown: heterologous N-terminal leader of the E. coli fusion (pGB/IL-336: 12 aa; pGB/IL-339: 15 aa)
B11: hIL-3 double cysteine mutant 9045 (Cys16Cys84→Ala16Ala84) (ligand)
chain: B2 chain with C16A, C84A, A113F, T114Y
notes: also called 16/84C → A; not shown: heterologous N-terminal leader of the E. coli fusion (pGB/IL-336: 12 aa; pGB/IL-339: 15 aa)
B12: hIL-3 substitution mutant 1486 (Arg63Ala64→Pro63Gly64) (ligand)
chain: B2 chain with R63P, A64G, A113F, T114Y
notes: also called 63RA → PG; not shown: heterologous N-terminal leader of the E. coli fusion (pGB/IL-336: 12 aa; pGB/IL-339: 15 aa)
B13: hIL-3 substitution mutant 905 (Cys84→Ala84) (ligand)
chain: B2 chain with C84A, A113F, T114Y
notes: also called 84C → A; not shown: heterologous N-terminal leader of the E. coli fusion (pGB/IL-336: 12 aa; pGB/IL-339: 15 aa)
B14: hIL-3 substitution mutant 1483 (Glu50→Lys50) (ligand)
chain: B2 chain with E50K, A113F, T114Y
notes: also called 50E → K; not shown: heterologous N-terminal leader of the E. coli fusion (pGB/IL-336: 12 aa; pGB/IL-339: 15 aa)
B15: hIL-3 substitution mutant 1492 (Arg108Arg109Lys110→Glu108Asp109Glu110) (ligand)
chain: B2 chain with R108E, R109D, K110E, A113F, T114Y
notes: also called 108RRK → EDE; not shown: heterologous N-terminal leader of the E. coli fusion (pGB/IL-336: 12 aa; pGB/IL-339: 15 aa)
B16: hIL-3 substitution mutant 1488 (Lys79→Glu79) (ligand)
chain: B2 chain with K79E, A113F, T114Y
notes: also called 79K → E; not shown: heterologous N-terminal leader of the E. coli fusion (pGB/IL-336: 12 aa; pGB/IL-339: 15 aa)
B17: hIL-3 combination deletion mutant Z (deletions 1-14/116-133) (ligand)
chain: NCSNMIDEIITHLKQPPLPLLDFNNLNGEDQDILMENNLRRPNLEAFNRAVKSLQNASAIESILKNLLPCLPLATAAPTRHPIHIKDGDWNEFRRKLTFYL
notes: as for B6
B18: hIL-3 deletion mutant 822 (deletion 107-119) (ligand)
chain: APMTQTTPLKTSWVNCSNMIDEIITHLKQPPLPLLDFNNLNGEDQDILMENNLRRPNLEAFNRAVKSLQNASAIESILKNLLPCLPLATAAPTRHPIHIKDGDWNENAQAQQTTLSLAIF
notes: as for B1
B19: hIL-3 deletion mutant 933 (deletion 29-37) (ligand)
chain: APMTQTTPLKTSWVNCSNMIDEIITHLKNNLNGEDQDILMENNLRRPNLEAFNRAVKSLQNASAIESILKNLLPCLPLATAAPTRHPIHIKDGDWNEFRRKLTFYLKTLENAQAQQTTLSLAIF
notes: as for B6
B20: hIL-3 deletion mutant 812 (deletion 54-61) (ligand)
chain: APMTQTTPLKTSWVNCSNMIDEIITHLKQPPLPLLDFNNLNGEDQDILMENNLNRAVKSLQNASAIESILKNLLPCLPLATAAPTRHPIHIKDGDWNEFRRKLTFYLKTLENAQAQQTTLSLAIF
notes: as for B1
B21: reference IL-3 preparation (B. licheniformis, full-length IL-3 cDNA in pGB/IL-322) (ligand)
chain: B2 chain with A113F, T114Y
modifications: radiolabeled with the Bolton-Hunter reagent when used as tracer

One experiment deals with T1, IL-3 receptor (human, UniProt P26951 19-378; P32927 17-897).
T1 construct: whole, on cells; also called ILK3 receptor
T1 sequence (P26951 19-378, chain 1 of 2): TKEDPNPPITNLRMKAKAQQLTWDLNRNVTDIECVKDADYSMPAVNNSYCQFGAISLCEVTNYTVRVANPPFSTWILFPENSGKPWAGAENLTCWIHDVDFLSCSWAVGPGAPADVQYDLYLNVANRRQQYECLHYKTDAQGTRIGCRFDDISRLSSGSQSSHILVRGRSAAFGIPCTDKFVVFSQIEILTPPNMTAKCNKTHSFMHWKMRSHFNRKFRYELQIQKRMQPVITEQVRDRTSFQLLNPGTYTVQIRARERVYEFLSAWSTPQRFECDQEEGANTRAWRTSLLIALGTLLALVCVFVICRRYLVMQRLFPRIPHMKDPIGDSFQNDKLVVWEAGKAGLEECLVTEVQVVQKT
T1 sequence (P32927 17-897, chain 2 of 2): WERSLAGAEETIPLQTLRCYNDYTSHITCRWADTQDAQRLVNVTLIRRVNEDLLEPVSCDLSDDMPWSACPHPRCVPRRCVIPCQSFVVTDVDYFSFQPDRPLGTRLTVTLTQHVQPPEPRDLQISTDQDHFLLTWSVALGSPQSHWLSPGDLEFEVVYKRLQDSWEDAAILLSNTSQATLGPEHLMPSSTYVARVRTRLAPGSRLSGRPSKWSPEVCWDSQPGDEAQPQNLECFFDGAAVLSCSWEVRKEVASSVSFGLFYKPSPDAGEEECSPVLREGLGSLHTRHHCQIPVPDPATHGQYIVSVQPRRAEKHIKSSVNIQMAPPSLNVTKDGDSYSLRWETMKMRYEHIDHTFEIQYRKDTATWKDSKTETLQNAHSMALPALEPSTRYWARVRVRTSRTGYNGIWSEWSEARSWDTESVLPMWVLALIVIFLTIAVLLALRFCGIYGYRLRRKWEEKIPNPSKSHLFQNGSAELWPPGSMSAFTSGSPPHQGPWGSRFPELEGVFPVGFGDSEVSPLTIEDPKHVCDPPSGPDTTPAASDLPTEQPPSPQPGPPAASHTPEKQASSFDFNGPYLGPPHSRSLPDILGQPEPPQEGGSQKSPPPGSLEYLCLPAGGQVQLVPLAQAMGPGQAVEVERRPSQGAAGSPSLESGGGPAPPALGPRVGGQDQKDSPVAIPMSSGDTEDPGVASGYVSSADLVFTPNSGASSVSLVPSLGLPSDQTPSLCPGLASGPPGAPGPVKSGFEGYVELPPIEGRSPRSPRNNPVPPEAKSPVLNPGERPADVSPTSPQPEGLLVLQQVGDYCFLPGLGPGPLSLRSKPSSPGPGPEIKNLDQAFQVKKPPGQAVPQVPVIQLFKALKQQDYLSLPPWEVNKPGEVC
The experiment can be described thus: competition with radiolabeled IL-3 for binding to cells; NC: No competition was observed for the particular mutein preparation. The method, then: (§1) An ILK3 receptor binding assay was performed with purified recombinant hIL-3 (see EPA 0390252) was radiolabeled with the Bolton-Hunter reagent (as described by Budel et al., Blood 74 (1989) 565–571). The specific activity was estimated at 80,000 cpm/ng of IL-3. As target, either donor leukocytes, patient AML cells, or MV4-11 (ATCC: CRL-9591) cells were used. Cells were washed in Hanks Balanced Salt solution and suspended in Alpha-MEM plus 1% BSA. Usually, 3–10×10⁶ cells were incubated with 200–300 pM of radiolabeled IL-3 and various concentrations of unlabeled mutant protein in a total volume of 200 µl for 1 hr at 37° C. Cell-bound labeled IL-3 was centrifuged for 10 min at 1000×g at 4° C. through a 0.5 ml cushion of bovine calf serum in an Eppendorf tube (Budel et al., 1989). The tubes were frozen in liquid nitrogen and the tips cut off for counting in a Packard gamma counter. Competition binding was determined relative to the reference preparation. […] Radiolabeled IL-3 binding to patient AML blasts is competed with unlabeled IL-3 protein (reference preparation). Due to the low number of receptors (less than 200) on the target cells, data for competition mostly varied by one order of magnitude.
Regarding B1, the binding result is listed as “no binding”.

With B2, the binding result was “no binding”.

With B3, the binding result is “no binding”.

In the case of B4, the binding result is recorded as “no binding”.

Another experiment deals with T1, IL-3 receptor. The experiment can be described thus: competition with radiolabeled hIL-3 for binding to cells, relative to reference IL-3. The method, then: as §1
In the case of B5, the “relative antagonistic potential (relative receptor binding activity / relative biological activity)” value was determined as 2.4.

On to B6, for which the “relative antagonistic potential (relative receptor binding activity / relative biological activity)” value was determined as 1.6.

Consider B7, for which the “relative antagonistic potential (relative receptor binding activity / relative biological activity)” value came to 1.1.

Turning to B8, the “relative antagonistic potential (relative receptor binding activity / relative biological activity)” value was determined as 8.9.

For B9, the “relative antagonistic potential (relative receptor binding activity / relative biological activity)” value was found to be 100.

With B10, the “relative antagonistic potential (relative receptor binding activity / relative biological activity)” value came to 3.5.

Consider B11, for which the “relative antagonistic potential (relative receptor binding activity / relative biological activity)” value was 88.

Consider B12, for which the “relative antagonistic potential (relative receptor binding activity / relative biological activity)” value came out at 14.

As to B13, the “relative antagonistic potential (relative receptor binding activity / relative biological activity)” value worked out at 11.

Turning to B14, the “relative antagonistic potential (relative receptor binding activity / relative biological activity)” value stood at 37.

As to B15, the “relative antagonistic potential (relative receptor binding activity / relative biological activity)” value was determined as 2.

B16: the “relative antagonistic potential (relative receptor binding activity / relative biological activity)” value stood at 65.

On to B17, for which the “relative antagonistic potential (relative receptor binding activity / relative biological activity)” value stood at 1.6.

Take B18: the “relative antagonistic potential (relative receptor binding activity / relative biological activity)” value is 1.9.

Regarding B19, the “relative antagonistic potential (relative receptor binding activity / relative biological activity)” value came to 1.1.

With B20, the “relative antagonistic potential (relative receptor binding activity / relative biological activity)” value amounted to 1.2.

Another experiment addresses T1, IL-3 receptor. The experiment can be described thus: cell-based or functional assay.
For the molecule B5, the “REL. SPEC. BIOLOGICAL ACTIVITY (DNA synthesis of AML193 cells)” value (“REL. SPEC. BIOLOGICAL ACTIVITY” below) is 0.0021 relative to reference IL-3.

B6: the “REL. SPEC. BIOLOGICAL ACTIVITY” value is 0.0048 relative to reference IL-3.

With B7, the “REL. SPEC. BIOLOGICAL ACTIVITY” value is 0.79 relative to reference IL-3.

For B1, the “REL. SPEC. BIOLOGICAL ACTIVITY” value was 6.4e-06 relative to reference IL-3.

With B8, the “REL. SPEC. BIOLOGICAL ACTIVITY” value is 0.23 relative to reference IL-3.

As to B21, the “REL. SPEC. BIOLOGICAL ACTIVITY” value is 1 relative to reference IL-3.

As for B2, the “REL. SPEC. BIOLOGICAL ACTIVITY” value is < 1.2e-05 relative to reference IL-3.

As to B9, the “REL. SPEC. BIOLOGICAL ACTIVITY” value was 0.00024 relative to reference IL-3.

Turning to B3, the “REL. SPEC. BIOLOGICAL ACTIVITY” value is < 0.00015 relative to reference IL-3.

Take B10: the “REL. SPEC. BIOLOGICAL ACTIVITY” value is 8e-05 relative to reference IL-3.

Take B11: the “REL. SPEC. BIOLOGICAL ACTIVITY” value is 0.00031 relative to reference IL-3.

On to B12, for which the “REL. SPEC. BIOLOGICAL ACTIVITY” value was 9.8e-05 relative to reference IL-3.

B13: the “REL. SPEC. BIOLOGICAL ACTIVITY” value is 0.00019 relative to reference IL-3.

Take B14: the “REL. SPEC. BIOLOGICAL ACTIVITY” value is 0.0027 relative to reference IL-3.

In the case of B15, the “REL. SPEC. BIOLOGICAL ACTIVITY” value is 3.1e-05 relative to reference IL-3.

In the case of B16, the “REL. SPEC. BIOLOGICAL ACTIVITY” value is 0.0019 relative to reference IL-3.

Turning to B17, the “REL. SPEC. BIOLOGICAL ACTIVITY” value is 0.11 relative to reference IL-3.

For B18, the “REL. SPEC. BIOLOGICAL ACTIVITY” value was 0.00021 relative to reference IL-3.

On to B19, for which the “REL. SPEC. BIOLOGICAL ACTIVITY” value was 0.0057 relative to reference IL-3.

B20: the “REL. SPEC. BIOLOGICAL ACTIVITY” value was 5.3e-05 relative to reference IL-3.

Turning to B4, the “REL. SPEC. BIOLOGICAL ACTIVITY” value is 1.1e-05 relative to reference IL-3.
